Substitutions are numbered along the chain they refer to. Names may count otherwise.
Key:
[1] = target: T1, peptide consisting of the first 20 amino acids of htt, MATLEKLMKAFESLKSFQQQ-biotin (C-terminal biotin); assay: yeast surface display, flow cytometry with huntingtin peptide (method not restated in the sentence)
T1 construct: Synthesized to contain three glutamines; also called huntingtin peptide; huntingtin peptide antigen
T1 peptide: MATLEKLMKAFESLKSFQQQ
Experimental: (§1) Both intrabodies are equally capable of partially blocking aggregation when overexpressed at high levels. *** p<0.001. FIG. 24D is a schematic homology model that includes mutations obtained during engineering; model contains residues present before mutagenesis. Mutations observed after mutagenesis and sorting were F371, Y51D, K67R, and A75T.
(§2) Yeast surface display. […] Yeast surface display labeling experiments to measure expression and binding were conducted as previously described (Boder, E. T. et al., Methods Enzymol 328: 430-444, 2000). A peptide consisting of the first 20 amino acids of htt was used as the antigen ([…]-biotin (SEQ ID NO:9), synthesized by the MIT biopolymers lab). The antigen was synthesized to contain three glutamines because the beginning of the polyglutamine region would be an ideal target for interfering with the misfolding of htt exon I. Affinity maturation of VL,C22V,C89A relied upon protocols previously described (Colby, D. W. et al., Methods Enzymol 388: 348-358, 2004). Briefly, the VL,C22V,C89A gene was used as the template for the creation of a library of point mutants through error-prone PCR using nucleotide analogues. […]

[2] = target: T1, peptide consisting of the first 20 …; assay: titration of yeast surface displayed intrabody with biotinylated peptide, flow cytometry
Experimental: as §1, §2

[3] = target: T1, peptide consisting of the first 20 …; assay: yeast surface display titration
Experimental: as §1, §2

[4] = target: T1, peptide consisting of the first 20 …; assay: yeast surface display, flow cytometry with huntingtin peptide
Experimental: as §1, §2

[5] = target: T1, peptide consisting of the first 20 …; assay: yeast surface display, flow cytometry
Experimental: as §1, §2

[6] = target: T1, peptide consisting of the first 20 …; assay: antigen binding curves of yeast surface displayed VL mutants, flow cytometry; figure legend's estimate from FIG. 24B
Experimental: as §1, §2

[7] = target: T1, peptide consisting of the first 20 …; assay: titration of yeast surface displayed intrabody with biotinylated peptide, flow cytometry; Example 4 text's estimate from FIG. 24B
From the text: A peptide consisting of the first 20 amino acids of htt was used as the antigen ([…]-biotin (SEQ ID NO:9), synthesized by the MIT biopolymers lab). The antigen was synthesized to contain three glutamines because the beginning of the polyglutamine region would be an ideal target for interfering with the misfolding of htt exon I. Affinity maturation of VL,C22V,C89A relied upon protocols previously described (Colby, D. W. et al., Methods Enzymol 388: 348-358, 2004). Briefly, the VL,C22V,C89A gene was used as the template for the creation of a library of point mutants through error-prone PCR using nucleotide analogues. The resulting PCR products were amplified and transformed into yeast along with digested pCTCON (a yeast surface display vector) to create a library through homologous recombination (Raymond, C. K. et al., Biotechniques 26: 134-138, 140-141, 1999). […] These mutants were then used as the template in the next round of library generation. The entire process, from library generation to isolation of improved mutants, was repeated three times to yield VL12.3. FACS sorting was performed using a Cytomation Moflo FACS machine by the staff of the MIT Flow cytometry core facility. All constructs and clones were sequenced at the MIT biopolymers lab.
Intrabody lacking disulflde bond engineered for high affinity by directed evolution. […]

[8] = target: httex1Q97-GFP, P42858; assay: cell-based or functional assay

B1: VL (anti-huntingtin single-domain antibody, variable light chain only), yeast-surface displayed (other)
VL: QPVLTQSPSVSAAPRQRVTISCSGSNSNIGSNTVNWFQQLPGRAPELLMYYDDLLAPGVSDRFSGSKSGTSASLAISGLQSEDEADYYCATWDDSLNGWVFGGGTKVTVLS
notes: Single human VL domain with its disulfide bond; also called SDAb; SDIb
Q: With B1 as the binder, how does the Kd [1] read?
A: 30 to 50 nM

Q: And the Kd [2]?
A: ~30 nM

B2: VL,C22V,C89A (disulfide-free VL), yeast-surface displayed (other)
VL: B1 VL with C22V, C89A
notes: also called disulfide-free antibody; disulfide knock-out
Q: With B2 as the binder, how does the “fold difference in affinity against VL” value [3] read?
A: ~1000 fold

Q: And the “fold decrease in affinity against the SDAb with its disulfide bond” value [4]?
A: ~100 fold

Q: What about the Kd [2] of the same binder?
A: > 10000 nM

B3: engineered (affinity matured) disulfide-free SDIb of Examples 1 and 3 (other)
VL: SRPVLTQSPSVSAAPRQRVTISVSGSNSNIGSNTVNWIQQLPGRAPELLMYDDDLLAPGVSDRFSGSRSGTSASLTISGLQSEDEADYYAATWDDSLNDWVFGGGTKVTVLS
notes: expressed in yeast cytoplasm for the aggregation assay (construct not described); also called engineered SDIb
Q: B3 was tested. Which Kd [5] did it give?
A: ~10 nM

B4: VL12.3 (other)
VL: MGSQPVLTQSPSVSAAPRQRVTISVSGSNSNIGSNTVNWIQQLPGRAPELLMYDDDLLAPGVSDRFSGSRSGTSASLTISGLQSEDEADYYAATWDDSLNGWVFGGGTKVTVLSGHHHHHH
notes: It carries N-terminal MGS and C-terminal GHHHHHH, which is the his6 intrabody form; also called engineered intrabody VL12.3; Ad-VL12.3 (adenovirus carrying the gene)
Q: Which results are given for B4?
A: Kd [6]: ~3 nM; Kd [7]: ~5 nM; formation of aggregates in ST14A cells, 1:1 intrabody:htt plasmid ratio [8]: 80 % reduction; formation of aggregates in ST14A cells, higher intrabody:htt plasmid ratios [8]: > 90 % reduction

Source: patent US20050226863A1 (MIT, published 2005)
